Results from patent US20160024487.

Key:
[1] = target: T1, Lys(Dnp)-ATNATLWPRIVGG-Lys(Abz)
T1 chain: KATNATLWPRIVGGK

[2] = target: T2, Lys(Dnp)-ATNATVYPRIVGG-Lys(Abz)
T2 chain: KATNATVYPRIVGGK

[3] = target: T3, Lys(Dnp)-ATNATMIPRIVGG-Lys(Abz)
T3 chain: KATNATMIPRIVGGK

[4] = target: T4, Lys(Dnp)-ATNATIQPRIVGG-Lys(Abz)
T4 chain: KATNATIQPRIVGGK

[5] = target: T5, Lys(Dnp)-ATNATMVPRIVGG-Lys(Abz)
T5 chain: KATNATMVPRIVGGK

[6] = target: T6, Lys(Dnp)-ATNATFFPRIVGG-Lys(Abz)
T6 chain: KATNATFFPRIVGGK

[7] = target: T7, Lys(Dnp)-ATNATWSPRIVGG-Lys(Abz)
T7 chain: KATNATWSPRIVGGK

[8] = target: T8, Lys(Dnp)-ATNATFRPRIVGG-Lys(Abz)
T8 chain: KATNATFRPRIVGGK

[9] = target: T9, Lys(Dnp)-ATNATAAPRIVGG-Lys(Abz)
T9 chain: KATNATAAPRIVGGK

[10] = target: T10, Lys(Dnp)-ATNATPYPRIVGG-Lys(Abz)
T10 chain: KATNATPYPRIVGGK

[11] = target: T11, Lys(Dnp)-ATNATLVPRIVGG-Lys(Abz)
T11 chain: KATNATLVPRIVGGK

[12] = target: T12, Lys(Dnp)-ATNATIMPRIVGG-Lys(Abz)
T12 chain: KATNATIMPRIVGGK

[13] = target: T13, Lys(Dnp)-ATNATWTPRIVGG-Lys(Abz)
T13 chain: KATNATWTPRIVGGK

[14] = target: T14, Lys(Dnp)-ATNATFWPRIVGG-Lys(Abz)
T14 chain: KATNATFWPRIVGGK

[15] = target: T15, Lys(Dnp)-ATNATIKPRIVGG-Lys(Abz)
T15 chain: KATNATIKPRIVGGK

[16] = target: T16, Lys(Dnp)-ATNATLKPRIVGG-Lys(Abz)
T16 chain: KATNATLKPRIVGGK

[17] = target: T17, Lys(Dnp)-ATNATEMPRIVGG-Lys(Abz)
T17 chain: KATNATEMPRIVGGK

[18] = target: T18, Lys(Dnp)-ATNATFEPRIVGG-Lys(Abz)
T18 chain: KATNATFEPRIVGGK

[19] = target: T19, Lys(Dnp)-ATNATANPRIVGG-Lys(Abz)
T19 chain: KATNATANPRIVGGK

[20] = target: T20, Lys(Dnp)-ATNATIAPRIVGG-Lys(Abz)
T20 chain: KATNATIAPRIVGGK

[21] = target: T21, Lys(Dnp)-ATNATKQPRIVGG-Lys(Abz)
T21 chain: KATNATKQPRIVGGK

[22] = target: T22, Lys(Dnp)-ATNATGNPRIVGG-Lys(Abz)
T22 chain: KATNATGNPRIVGGK

[23] = target: T23, Lys(Dnp)-ATNATKMPRIVGG-Lys(Abz)
T23 chain: KATNATKMPRIVGGK

[24] = target: T24, Lys(Dnp)-ATNATHEPRIVGG-Lys(Abz)
T24 chain: KATNATHEPRIVGGK

[25] = target: T25, Lys(Dnp)-ATNATMWPRIVGG-Lys(Abz)
T25 chain: KATNATMWPRIVGGK

[26] = target: T26, Lys(Dnp)-ATNATYMPRIVGG-Lys(Abz)
T26 chain: KATNATYMPRIVGGK

[27] = target: T27, Lys(Dnp)-ATNATRFPRIVGG-Lys(Abz)
T27 chain: KATNATRFPRIVGGK

[28] = target: T28, Lys(Dnp)-ATNATTWPRIVGG-Lys(Abz)
T28 chain: KATNATTWPRIVGGK

[29] = target: T29, Lys(Dnp)-ATNATGLPRIVGG-Lys(Abz)
T29 chain: KATNATGLPRIVGGK

[30] = target: T30, Lys(Dnp)-ATNATWLPRIVGG-Lys(Abz)
T30 chain: KATNATWLPRIVGGK

[31] = target: T31, Lys(Dnp)-ATNATAMPRIVGG-Lys(Abz)
T31 chain: KATNATAMPRIVGGK

[32] = target: T32, Lys(Dnp)-ATNATKHPRIVGG-Lys(Abz)
T32 chain: KATNATKHPRIVGGK

[33] = target: T33, Lys(Dnp)-ATNATTDPRIVGG-Lys(Abz)
T33 chain: KATNATTDPRIVGGK

[34] = target: T34, Lys(Dnp)-ATNATRHPRIVGG-Lys(Abz)
T34 chain: KATNATRHPRIVGGK

[35] = target: T35, Lys(Dnp)-ATNATQYPRIVGG-Lys(Abz)
T35 chain: KATNATQYPRIVGGK

[36] = target: T36, Lys(Dnp)-ATNATKAPRIVGG-Lys(Abz)
T36 chain: KATNATKAPRIVGGK

[37] = target: T37, Lys(Dnp)-ATNATMDPRIVGG-Lys(Abz)
T37 chain: KATNATMDPRIVGGK

[38] = target: T38, Lys(Dnp)-ATNATLEPRIVGG-Lys(Abz)
T38 chain: KATNATLEPRIVGGK

[39] = target: T39, Lys(Dnp)-ATNATDRPRIVGG-Lys(Abz)
T39 chain: KATNATDRPRIVGGK

[40] = target: T40, Lys(Dnp)-ATNATHLPRIVGG-Lys(Abz)
T40 chain: KATNATHLPRIVGGK

[41] = target: T41, Lys(Dnp)-ATNATGEPRIVGG-Lys(Abz)
T41 chain: KATNATGEPRIVGGK

B1: Human plasma purified Factor Xa (protein)
chain 1: ANSFLEEMKKGHLERECMEETCSYEEAREVFEDSDKTNEFWNKYKDGDQCETSPCQNQGKCKDGLGEYTCTCLEGFEGKNCELFTRKLCSLDNGDCDQFCHEEQNSVVCSCARGYTLADNGKACIPTGPYPCGKQTLER
chain 2: IVGGQECKDGECPWQALLINEENEGFCGGTILSEFYILTAAHCLYQAKRFKVRVGDRNTEQEEGGEAVHEVEVVIKHNRFTKETYDFDIAVLRLKTPITFRMNVAPACLPERDWAESTLMTQKTGIVSGFGRTHEKGRQSTRLKMLEVPYVDRNSCKLSSSFIITQNMFCAGYDTKQEDACQGDSGGPHVTRFKDTYFVTGIVSWGEGCARKGKYGIYTKVTAFLKWIDRSMKTRGLPKAKSHAPEVITSSPLK
With B1 the FXa kcat/KM [1] was 1000 M⁻¹ s⁻¹, the FXa kcat/KM [2] was 61 M⁻¹ s⁻¹ and the FXa kcat/KM [3] was 220 M⁻¹ s⁻¹. For the same protein, the FXa kcat/KM [4] was 1700 M⁻¹ s⁻¹, the FXa kcat/KM [5] was 100 M⁻¹ s⁻¹ and the FXa kcat/KM [6] was 48 M⁻¹ s⁻¹. For the same protein, the FXa kcat/KM [7] was 52 M⁻¹ s⁻¹, the FXa kcat/KM [8] was 430 M⁻¹ s⁻¹ and the FXa kcat/KM [9] was 45 M⁻¹ s⁻¹. For the same protein, the FXa kcat/KM [10] was 83 M⁻¹ s⁻¹, the FXa kcat/KM [11] was 360 M⁻¹ s⁻¹ and the FXa kcat/KM [12] was 2100 M⁻¹ s⁻¹. The FXa kcat/KM [13] was 46 M⁻¹ s⁻¹, the FXa kcat/KM [14] was 370 M⁻¹ s⁻¹ and the FXa kcat/KM [15] was 120 M⁻¹ s⁻¹. The FXa kcat/KM [16] was 72 M⁻¹ s⁻¹.

B2: Human plasma purified Factor Xa (Molecular Innovations, Inc) (protein)
chain 1: B1 chain 1
chain 2: B1 chain 2
With B2 the FXa kcat/KM [17] was 13 M⁻¹ s⁻¹, the FXa kcat/KM [18] was 140 M⁻¹ s⁻¹ and the FXa kcat/KM [19] was 78 M⁻¹ s⁻¹. It also gave an FXa kcat/KM [20] of 650 M⁻¹ s⁻¹, an FXa kcat/KM [21] of 100 M⁻¹ s⁻¹ and an FXa kcat/KM [22] of 52 M⁻¹ s⁻¹. The FXa kcat/KM [23] was 140 M⁻¹ s⁻¹, the FXa kcat/KM [24] was 96 M⁻¹ s⁻¹ and the FXa kcat/KM [25] was 630 M⁻¹ s⁻¹. The FXa kcat/KM [26] was 160 M⁻¹ s⁻¹, the FXa kcat/KM [27] was 730 M⁻¹ s⁻¹ and the FXa kcat/KM [28] was 21 M⁻¹ s⁻¹. It also gave an FXa kcat/KM [29] of 78 M⁻¹ s⁻¹, an FXa kcat/KM [30] of 460 M⁻¹ s⁻¹ and an FXa kcat/KM [31] of 460 M⁻¹ s⁻¹. For the same protein, the FXa kcat/KM [32] was 56 M⁻¹ s⁻¹, the FXa kcat/KM [33] was 11 M⁻¹ s⁻¹ and the FXa kcat/KM [34] was 2600 M⁻¹ s⁻¹. For the same protein, the FXa kcat/KM [35] was 200 M⁻¹ s⁻¹, the FXa kcat/KM [36] was 52 M⁻¹ s⁻¹ and the FXa kcat/KM [37] was 500 M⁻¹ s⁻¹. It also gave an FXa kcat/KM [38] of 690 M⁻¹ s⁻¹, an FXa kcat/KM [39] of 190 M⁻¹ s⁻¹ and an FXa kcat/KM [40] of 140 M⁻¹ s⁻¹. For the same protein, the FXa kcat/KM [41] was 87 M⁻¹ s⁻¹.
